Measurements from patent EP4799649A1 (RemeGen Co., Ltd., dated 2026).

T1: APRIL homotrimer (UniProt O75888 105-250, limits assumed)
T1 construct: also called a proliferation-inducing ligand
T1 sequence (looked up): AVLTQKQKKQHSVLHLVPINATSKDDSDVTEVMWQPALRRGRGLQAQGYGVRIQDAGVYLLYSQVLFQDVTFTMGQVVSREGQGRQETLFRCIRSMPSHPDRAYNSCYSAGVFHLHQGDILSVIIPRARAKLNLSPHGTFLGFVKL


Legend:
[1] = molecular target: T2, Blys homotrimer (UniProt Q9Y275 134-285); test: ELISA on Blys homotrimer
T2 construct: also called BAFF; B lymphocyte stimulator

[2] = molecular target: T1, APRIL homotrimer; test: ELISA on APRIL homotrimer

Row | EC50 [1] | EC50 [2] | Binder
1 | 0.219 nM | 1.1 nM | telitacicept (Fc fusion, TACI-Fc fusion protein (truncated TACI plus optimized human IgG1 Fc); also called RC18; Tai'ai) SRVDQEERFPQGLWTGVAMRSCPEEQYWDPLLGTCMSCKTICNHQSQRTCAAFCRSLSCRKEQGKFYDHLLRDCISCASICGQHPKQCAYFCENKLRSPVNLPPELDKTHTCPPCPAPEAEGAPSVFLFPPKPKDTLMISRTPEVTCVVVDVSHEDPEVKFNWYVDGVEVHNAKTKPREEQYNSTYRVVSVLTVLHQDWLNGKEYKCKVSNKALPSSIEKTISKAKGQPREPQVYTLPPSRDELTKNQVSLTCLVKGFYPSDIAVEWESNGQPENNYKTTPPVLDSDGSFFLYSKLTVDKSRWQQGNVFSCSVMHEALHNHYTQKSLSLSPGK
2 | 0.057 nM | 0.128 nM | povetacicept (Fc fusion, Fc fusion protein of an engineered TACI domain) SLSCRKEQGEYYDHLLRDCISCASICGQHPKQCADFCENKLRSGSGGGGSEPKSSDKTHTCPPCPAPEAEGAPSVFLFPPKPKDTLMISRTPEVTCVVVDVSHEDPEVKFNWYVDGVEVHNAKTKPREEQYNSTYRVVSVLTVLHQDWLNGKEYKCKVSNKALPAPIEKTISKAKGQPREPQVYTLPPSRDELTKNQVSLTCLVKGFYPSDIAVEWESNGQPENNYKTTPPVLDSDGSFFLYSKLTVDKSRWQQGNVFSCSVMHEALHNHYTQKSLSLSPG
